Assay: yeast display, Sf9 membrane polyspecificity reagent, FACS + sequencing; frameworks hold sequencing errors
Summary of the method: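 Galactose-induced (36–48 hours) yeast carrying a synthetic nanobody display library were exposed to 10% biotinylated, detergent-solubilized Sf9 membrane reagent at 4 °C for 1 hour. FACS followed streptavidin microbead enrichment, using low and high (top ~1%) gates for expression (anti-HA) and reagent binding (streptavidin). Colony PCR, MiSeq 2 × 250 sequencing and CDR-length filtering followed. Labels for polyreactivity reflect the gate of origin.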

Sequence	polyreactivity (PSR sort gate)
QVQLVESGGGLVQAGGSLRLSCAASGSTFPGNAMGWYRQAPGKERELVARINDGADTNYADSVKGRFTISRDNAKTTVSLQMNSLKPEDTAVYYCANPYFDGRTHFDSWGQGTQVTVSS	low polyreactivity
QVQLVESGGGLVQAGGSLRLSCAASGSTFPGNAMGWYRQSPGKERELVAAISDGVRTSYADSVKGRFTISRDNAKNTVYLQMNSLKPEDTAVYYCNADFARQYDPHVLYITVGMDYWGQGTKVTVSS	low polyreactivity
QVQLVESGGGLVQAGGSLRLSCAASGSTFPGYAMGRYRPAPGKERELVAAISASGGSTYYADSVKGRFTISRDYAKNTVYLQMNSLTPEDTAVYYCAKVLSRGASAHVYWGQGTQVTVSS	low polyreactivity
QVQLVESGGGLVQAGGSLRLSCAASGSTFPGYAMGWYRQAPGKERELVAAINWRGDSTYYADSVKGRFTISRDNAKNTVYLEMNSLKPEDPAVYFCNTVWGSPSRSSAYDYWGQGTQVTVSS	high polyreactivity
QVQLVESGGGLVQAGGSLRLSCAASGSTFPGYAMGWYRQAPGKERELVAAINWRGDSTYYADSVKGRFTISRDNAKNTVYLQMNSLKPEDTAVYYCAAKYNHVTDEYDYWGQGTEVTVSS	high polyreactivity
QVQLVESGGGLVQAGGSLRLSCAASGSTFPHNPMGWYRQQPGKERELVAAISVGGGSKHYADSVKGRFTISRDNAKNTVYFQMNSLKPEDTAVYYCAKDYAYQYSFVTYDYWGQGTLVTVSS	low polyreactivity
QVQLVESGGGLVQAGGSLRLSCAASGSTFPKYGMGWYRQAPGKEREFVARINWNGGGTYYADSVKGRFTISRDYAKNTVYLQMNSLKPEDTAVYYCNARKRGARFILGYDYWGQGTQVTVSS	low polyreactivity
QVQLVESGGGLVQAGGSLRLSCAASGSTFPKYPMGWYRQSPGKERELVASISVTTGSTYYADSVKGRFTISRDNAKHTVYLQMNSLKPEDTAVYYCAKRTYSRKFRGAYNYWGLGTQVTVSS	high polyreactivity
QVQLVESGGGLVQAGGSLRLSCAASGSTFPLYTMGWYRQAPGKEREFVAAISRSGGSTYYADSVKGRFTISRDNAKNTVFLQINSLKPEDTAVYYCDTRSYKSRTYDYWGQGTQVSVSS	high polyreactivity
QVQLVESGGGLVQAGGSLRLSCAASGSTFPPYAMGWYRQAPGKERELVAAISNVGSTNYADSVKGRFTISRDNAKNTVYLQMNSLKPEETAVYYCAADFWERFALWGWIYLDYDYWGQGTQVTVSS	low polyreactivity
QVQLVESGGGLVQAGGSLRLSCAASGSTFPQYAMGWDRQAPGKERELVAVITDSGGSTYYADSVKGRFTISRDNAKNTVYLQKNSLKPEDTAVYYCAARRWSPRSGLGYGYWGQGTQVTVSS	high polyreactivity
QVQLVESGGGLVQAGGSLRLSCAASGSTFPQYTMGWSRQAQGKERELVAAITSGGRTYYADSVKGRFTISRDNAKNTVYLQMNSLKPEDTAVYFCAAGYWYRYFYYTSSPYDYWGQGTQVTVSS	high polyreactivity
QVQLVESGGGLVQAGGSLRLSCAASGSTFPQYVMGWYRQEPGKERELVAAITKSGGRTYYADSVKGRFTISRDNAKNTVYLQMNSLKPEDTAVYYCAAVRWDISRFRYYSWGHGTQVTVSS	high polyreactivity
QVQLVESGGGLVQAGGSLRLSCAASGSTFPRNAMGWYRQAPGKERELVAAITSGGSTYYADSVKGRFTISRDNAKNTVYLQMNSLKPEDTAVYYCAKSRSSYPYRTYYYWGQGTQVTVSS	low polyreactivity
QVQLVESGGGLVQAGGSLRLSCAASGSTFPRNAMGWYRQAPGKERELVARITWSGGDTYYADSVKGRFTISRDNSKNTVYLQMISLKPEDTAVYYCAARWYRSVLAKVGYGYWGQGTQVTVSS	high polyreactivity
QVQLVESGGGLVQAGGSLRLSCAASGSTFPRYAMGWYRQAPGKERELVAAISSGGSTYYADSVKGRFTISRDNAKNTVYLQMNSLKPEDTAVYYCNARRSRSRYDYWGQGTQVTVSS	high polyreactivity
QVQLVESGGGLVQAGGSLRLSCAASGSTFPRYAMGWYRQAPGKERELVAAISSGGSTYYADSVKGRFTISRDNAKNTVYLQMNSLKPEDTAVYYCNRRPGARYNYWGQGTQVTVSS	high polyreactivity
QVQLVESGGGLVQAGGSLRLSCAASGSTFPRYAMGWYRQAPGKERELVADISSGGSTYYADSVKGRFTISRDNAKNTVYLQMNSLKPEDTAVYYCNARRSRSRYDYWGQGTQVTVSS	high polyreactivity
QVQLVESGGGLVQAGGSLRLSCAASGSTFPRYAMGWYRQAPGKERELVASITSDGGSTYYADSVKGRFTISRDNAKNTVYLQMNSLKPEDTAFYYCNKVPYRGYRRYGYWGQGTQVTVSS	high polyreactivity
QVQLVESGGGLVQAGGSLRLSCAASGSTFPSNAMGWYRQAPGKERELVAAISRSGGSTYYADSVKGRFTISRDNAKNTVYLQMNSLKPEDTAVYYCAVQVRPNSGGTRIHRGGYDYWGQGTQVTVSS	low polyreactivity
QVQLVESGGGLVQAGGSLRLSCAASGSTFPSYVMGWSRQAPGKARELVAAISSSGGRTYYADSVKGRFTISRDNAKNTVYLQMNSLKPEDTAVYYCAAKRGPLVYDHDYWGQGTQVTVSS	high polyreactivity
QVQLVESGGGLVQAGGSLRLSCAASGSTFPTNAMGWYRQAPGKERELVAGITEGGSSTYYADSVKGRFTISRDNAKNTVYLQMTSLKPEDTAVYYCAAAARAGLKRYYYWGQGTQVTVSS	high polyreactivity

Sequence	polyreactivity (PSR sort gate)
QVQLVESGGGLVQAGGSLRLSCAASGSTFPTYAMGWYRQAPGKESELVAAISFSGARTYYADSVKGRFTISRDNAKNTVYLQMNSLKPEDTAVYYCAKDSSYSRRYEYWGQGTQVTVSS	high polyreactivity
QVQLVESGGGLVQAGGSLRLSCAASGSTFPVNTMGWYRQAPGKERELVAAISSDDNTNYADSVKGRFTISRDNAKNTVYLQMNSLKPEDTAVYYCAVKGHPAYVEVPPRYAWEFDYWGQGTQVTVSS	low polyreactivity
QVQLVESGGGLVQAGGSLRLSCAASGSTFPVYAMGWYRQAPGKERELVAAISLIGGSTYYADSVKGRFTISRDNAKNTVYLQMNSLNPEDTAVYYCNNAVISSPPAIDVLEMDYWGQGTQVTVSS	low polyreactivity
QVQLVESGGGLVQAGGSLRLSCAASGSTFPVYAMGWYRQAPGKERELVAAISRAGSTNYADSVKGRFTISRHNAKNTVYLEMNSLKPEDTAVYYCAARGYLWAGEWYVRRDYWGQGTQVTVSS	high polyreactivity
QVQLVESGGGLVQAGGSLRLSCAASGSTFPWYAMGWYRQAPGKERELVASITSGTTTNYADSVKGRFTISRDNAKNTVYLQMNSLKPEDTAVYYCAASWVYPYDYWGQGTQVTVSS	low polyreactivity
QVQLVESGGGLVQAGGSLRLSCAASGSTFPYNARGWYRQAPGKERELVAAINSNGGSTYYADSVKGRFTISRDNAKNTVYLQMNSLKPEDTAVYYCAAGFYYRPFYGSSHSYGYWGQGTQVTVSS	low polyreactivity
QVQLVESGGGLVQAGGSLRLSCAASGSTFPYNVMGWYRQAPGKERELVASISWSGGRQYYADSVKGRFTISRDNAKNTVYLQMNSLKPEDTAVYYCAADAAFPADYWGQGTQVTVSS	low polyreactivity
QVQLVESGGGLVQAGGSLRLSCAASGSTFPYYAMGWYRQAPGKERELVAAITSSGGSTYYADSVKGRFTISRDNAKNTVYLQMNSLKPEDTAVYYCAKGYGPYRQMNYWGQGTQVTVSS	low polyreactivity
QVQLVESGGGLVQAGGSLRLSCAASGSTFPYYAMGWYRQAPGKERELVAAITSSTGRTYYADSVKGRFTISRDNAKNSVYLQMNSLKPEDSAVYYCNAEVYSDPYNDHDYWGQGTQVTVSS	low polyreactivity
QVQLVESGGGLVQAGGSLRLSCAASGSTFPYYAMGWYRQAPGKERELVARISYRGGRTYYADSVKGRFTISRDNAKNTVYLQMNSLKPEDTAVYYCAADRWVYYHSTRYDYWGQGTQVTVSS	high polyreactivity
QVQLVESGGGLVQAGGSLRLSCAASGSTFPYYAMGWYRQATGKEREFVASITYGGGSTYYADSVKGRFTISRDNAKNTVYLQMNSLKPEDTAVYYCAAGYIAGRVWYDYWGQGTQVTVSS	low polyreactivity
QVQLVESGGGLVQAGGSLRLSCAASGSTFPYYDMGWYRQAPGKERELVAAISWSGDSTYYADSVKGRFTISRDNAKNTVYLQMKSLKAEDTAVYYCNADGKAGGDYDYWGQGTQVTVSS	low polyreactivity
QVQLVESGGGLVQAGGSLRLSCAASGSTFPYYPMGWYRQAPGKERELVAAISRGDSTNYADSVKGRFTISRDNAKNTVYLQMNCLKPEDTAVYYCAARLQYRRTSVKYYFWGQGTQVTVSS	high polyreactivity
QVQLVESGGGLVQAGGSLRLSCAASGSTFPYYTMGWYRQAPGKEREMVAAITGSGGSTYYADSVKGRFTISRDNAKNTVYLQMNSLKPEDTAVYYCAKRRWDQYFKNRMYFWGQGTQVTVSS	high polyreactivity
QVQLVESGGGLVQAGGSLRLSCAASGSTFQANAMAWYRPAPGKERELVAAISSRGGITYYADSVKARFTISRDNAKNTVYLQMNSLKPEDTAVYYCNALPRSTYRQGLGVRLYYWGQGTQVTVSS	high polyreactivity
QVQLVESGGGLVQAGGSLRLSCAASGSTFQAYAMGWYRQAPGKERELVAAISVSDGITYYADSVKGRFTISRDNAKNTVYLQMNSLKPEDTAVNYCAAEISLSRSDRIESYDYWGQGTQVTVSS	low polyreactivity
QVQLVESGGGLVQAGGSLRLSCAASGSTFQAYVMGWDRQAPGKERELVAAISRSGGSTYYADSVKGRFTISRDNAKNTVYLQLHSLKPEDTAVYYCAVDASRYGSTGHYGFYYWGQGTQVTVSS	low polyreactivity
QVQLVESGGGLVQAGGSLRLSCAASGSTFQDYAMGWYRQAPGKERELVAAITYSGGSTYYADSVKGRFTISRDNAKNTVYLQLNSLKPDVTAVYYCAAKDTTVFYYDDDYWGQGTQVTVSS	low polyreactivity
QVQLVESGGGLVQAGGSLRLSCAASGSTFQEYAMGWYRQAPGKERELVASIRWSGGRTYYADSVKGRFTISRDNAKNTVYLQMNSLKPEDTAVYYCNKVWVYAVTPSSWYKYGSWGQGTQVTVSS	low polyreactivity
QVQLVESGGGLVQAGGSLRLSCAASGSTFQFYAMGWYRQAPGKERELVAVITSGDDTNYADSVKGRFTISRDNAKNTVYLQMNSLKPEDTAVYYCDVDYILVYTRVRSYWFDYWGQGTQVTVSS	low polyreactivity
QVQLVESGGGLVQAGGSLRLSCAASGSTFQHYAMGWYRQAPGKERELVAAITNTGGSTYYADSVKGRFTISRDNAKNTVYLQMNSLKPEDTAVYYCATVGRRYGYPGYYWGQGTQVTVSS	low polyreactivity

Reference: the nanobody polyreactivity screen of Harvey et al. (2022)
